Test results: publication PMC9808734 (Nature Communications, 2023)

Target: HLA-A3 on CFPAC parental cells (Homo sapiens, HLA-A3 serotype, allele …, strain)

| binding result | Binder |
| --- | --- |
| binds | HLAA3_8 (VHH) VHH: EVQLVESGGGLVQPGGSLRLSCAASGFNIYSYYIHWVRQAPGKGLEWVAKIYPDSGYTYYADSVKGRFTISADTSKNTAYLQMNSLRAEDTAVYYCSRSFSRYGYMDYWGQGTLVTVSS |
| binds | HLAA3_1 (VHH) VHH: EVQLVESGGGLVQPGGSLRLSCAASGFNVQGDGMHWVRQAPGKGLEWVAMVGPYSSYTYYADSVKGRFTISADTSKNTAYLQMNSLRAEDTAVYYCSRYSDGAFDYWGQGTLVTVSS |
| binds | HLAA3_6 (VHH) VHH: EVQLVESGGGLVQPGGSLRLSCAASGFNIFGYYMHWVRQAPGKGLEWVAVVSPGSGYTNYADSVKGRFTISADTSKNTAYLQMNSLRAEDTAVYYCSRALYSAYFAYWGQGTLVTVSS |
| binds | HLAA3_9 (VHH) VHH: EVQLVESGGGLVQPGGSLRLSCAASGFNISTWLIHWVRQAPGKGLEWVAVVYPDSSYTYYADSVKGRFTISADTSKNTAYLQMNSLRAEDTAVYYCSRSWFSKSAMDYWGQGTLVTVSS |
| binds | HLAA3_10 (VHH) VHH: EVQLVESGGGLVQPGGSLRLSCAASGFNVYYSGMHWVRQAPGKGLEWVAKISPDSGSTYYADSVKGRFTISADTSKNTAYLQMNSLRAEDTAVYYCSRDMYSVRSAMDYWGQGTLVTVSS |
| binds | HLAA3_3 (VHH) VHH: EVQLVESGGGLVQPGGSLRLSCAASGFNIYSYAMHWVRQAPGKGLEWVASVAPGSGYTYYADSVKGRFTISADTSKNTAYLQMNSLRAEDTAVYYCSRNKYYTAYYMDYWGQGTLVTVSS |
| binds | HLAA3_2 (VHH) VHH: EVQLVESGGGLVQPGGSLRLSCAASGFNITKYSIHWVRQAPGKGLEWVAMVGPYSSYTYYADSVKGRFTISADTSKNTAYLQMNSLRAEDTAVYYCSRFYSSYAFDVWGQGTLVTVSS |
| binds | HLAA3_4 (VHH) VHH: EVQLVESGGGLVQPGGSLRLSCAASGFNIYSYAMHWVRQAPGKGLEWVASFVPGSYATYYADSVKGRFTISADTSKNTAYLQMNSLRAEDTAVYYCSRGYYASYYFDVWGQGTLVTVSS |
| binds | HLAA3_11 (VHH) VHH: EVQLVESGGGLVQPGGSLRLSCAASGFNIYSYGIHWVRQAPGKGLEWVAKVSPSSGYTYYADSVKGRFTISADTSKNTAYLQMNSLRAEDTAVYYCSRQYGYPYYFDYWGQGTLVTVSS |
| binds | HLAA3_5 (VHH) VHH: EVQLVESGGGLVQPGGSLRLSCAASGFNLSYYWMHWVRQAPGKGLEWVASIYPDGSYTWYADSVKGRFTISADTSKNTAYLQMNSLRAEDTAVYYCSRGTYFAMDYWGQGTLVTVSS |
| binds | HLAA3_7 (VHH) VHH: EVQLVESGGGLVQPGGSLRLSCAASGFNVYYYWMHWVRQAPGKGLEWVASIYPDSDNTYYADSVKGRFTISADTSKNTAYLQMNSLRAEDTAVYYCSRGDYYYSYLDYWGQGTLVTVSS |
